Measurements: paper PMC9219861

Target: ULK1 (UniProt O75385)
Assay: FLAG co-IP, ULK1 blot
Details: reference: Flag-CHK2 WT, EBSS; sites T68

## CHK2 (from UniProt O96017) Flag-CHK2 T68A, EBSS
  binding against the reference: weaker
